Results on one molecule are retold here after patent CN111378628A (UNIV YANGZHOU, dated 2020).

The target in one assay is 重组ESAT6蛋白 (Mycobacterium tuberculosis, UniProt P9WNK7 1-95). Briefly: Western blotting.
The target of the next assay is T1, H37Rv中ESAT6抗原 (Mycobacterium tuberculosis H37Rv, UniProt P9WNK7 2-95).
T1 construct: also called H37Rv中的ESAT6抗原
Briefly: Western blotting. (Immunoblotting shows a protein as a band on a membrane.)

T1 sequence (P9WNK7 2-95 limits assumed): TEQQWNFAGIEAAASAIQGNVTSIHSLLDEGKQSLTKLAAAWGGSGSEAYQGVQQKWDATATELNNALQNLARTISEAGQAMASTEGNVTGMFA
Chain of 重组ESAT6蛋白 (P9WNK7 whole entry): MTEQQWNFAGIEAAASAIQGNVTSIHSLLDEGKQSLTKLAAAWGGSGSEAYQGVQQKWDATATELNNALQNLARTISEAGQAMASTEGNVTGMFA

B1: 单克隆抗体MAb 8G4 (抗ESAT6单克隆抗体, 杂交瘤细胞株8G4, CCTCC NO:C2019287) (antibody, V domains shown)
VH: QIQLVQSGPELKRPGETVKISCKASGYTFTNYGMNWVKQAPGKGLKWMGWINTYNGVPTYTDDFKGRFAFSLETSARTAYLQIKNLKNEDMATYFCAIGGNIPPAYWGQGTLVTVSA
VL: NIMMTQSPSSLAVSAREKVTMICKSSHSVLKSSNQKNYLAWYQQKPGQSPKLLIYWASTRNSGVPDRFTGSGSGTNFTLTITSVQTEDLAVYYCHQYLSSLTFGGGTKLELK
notes: also called 单克隆抗体8G4; ESAT6单克隆抗体8G4
For B1, the binding result in the assay with 重组ESAT6蛋白 and with H37Rv中ESAT6抗原 was “binds” each time.
